Measured values: US20170101454A1 (Novo Nordisk, published 2017)
Starred links: 1 amine or outer side, 2 acyl side, 3 side chain; linkers in the order of their positions; H or OH if unused. Non-standard residues stand in square brackets, D forms with d. Groups on a side chain read outwards from the residue. No end group written: not given here. *: point of attachment. C18 diacid = O=C(O)CCCCCCCCCCCCCCCCC(=O)*; γGlu = O=C(O)[C@H](CCC(=O)[*:2])N[*:1]; AEEA = NCCOCCOCC(=O)O; Aib = CC(C)(N)C(=O)O

Assays:
human GLP-1 receptor [1] = biological target: T1, human GLP-1 receptor (human, UniProt P43220 24-463); assay: cell-based or functional assay
human glucagon receptor [2] = biological target: T2, human glucagon receptor (human, UniProt P47871 26-477); assay: cell-based or functional assay
T2 sequence (P47871 26-477): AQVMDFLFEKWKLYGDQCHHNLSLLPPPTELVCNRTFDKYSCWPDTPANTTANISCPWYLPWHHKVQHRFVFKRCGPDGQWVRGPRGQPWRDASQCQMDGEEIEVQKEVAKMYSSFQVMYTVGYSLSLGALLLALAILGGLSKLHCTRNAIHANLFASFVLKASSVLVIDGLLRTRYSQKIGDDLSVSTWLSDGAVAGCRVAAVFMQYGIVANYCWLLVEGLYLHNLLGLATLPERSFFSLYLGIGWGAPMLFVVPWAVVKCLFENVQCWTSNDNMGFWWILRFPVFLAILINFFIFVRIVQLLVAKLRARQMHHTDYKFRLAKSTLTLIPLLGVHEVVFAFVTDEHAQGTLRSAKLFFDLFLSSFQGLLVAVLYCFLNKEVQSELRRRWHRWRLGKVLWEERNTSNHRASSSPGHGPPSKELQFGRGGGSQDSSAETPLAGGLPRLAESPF

human GLP-1 receptor [3] = biological target: T1, human GLP-1 receptor; assay: displacement of [125I]-GLP-1-(7-36)NH2 from BHK membranes with human GLP-1R, SPA, no serum albumin
human glucagon receptor [4] = biological target: T2, human glucagon receptor; assay: displacement of [125I]-glucagon from BHK membranes with human glucagon receptor, SPA, no serum albumin

| Binder | GLP-1R EC50 (pM) [Assay (I)(a)], CRE luciferase reporter, BHK cells (human GLP-1 receptor [1]) | GlucagonR EC50 (pM), [Assay (I)(b)], CRE luciferase reporter, BHK cells (human glucagon receptor [2]) | IC50 (human GLP-1 receptor [3]) | IC50 (human glucagon receptor [4]) |
| --- | --- | --- | --- | --- |
| H[Aib]QGTFTSDLSKYLDVRRAQDFVQWLIK([γGlu-AEEA-AEEA-γGlu-γGlu-C18 diacid])T-NH2 (N-terminus assumed; SMILES CC[C@H](C)[C@H](NC(=O)[C@H](CC(C)C)NC(=O)[C@H](Cc1c[nH]c2ccccc12)NC(=O)[C@H](CCC(N)=O)NC(=O)[C@@H](NC(=O)[C@H](Cc1ccccc1)NC(=O)[C@H](CC(=O)O)NC(=O)[C@H](CCC(N)=O)NC(=O)[C@H](C)NC(=O)[C@H](CCCNC(=N)N)NC(=O)[C@H](CCCNC(=N)N)NC(=O)[C@@H](NC(=O)[C@H](CC(=O)O)NC(=O)[C@H](CC(C)C)NC(=O)[C@H](Cc1ccc(O)cc1)NC(=O)[C@H](CCCCN)NC(=O)[C@H](CO)NC(=O)[C@H](CC(C)C)NC(=O)[C@H](CC(=O)O)NC(=O)[C@H](CO)NC(=O)[C@@H](NC(=O)[C@H](Cc1ccccc1)NC(=O)[C@@H](NC(=O)CNC(=O)[C@H](CCC(N)=O)NC(=O)C(C)(C)NC(=O)[C@@H](N)Cc1c[nH]cn1)[C@@H](C)O)[C@@H](C)O)C(C)C)C(C)C)C(=O)N[C@@H](CCCCNC(=O)CC[C@H](NC(=O)COCCOCCNC(=O)COCCOCCNC(=O)CC[C@H](NC(=O)CC[C@H](NC(=O)CCCCCCCCCCCCCCCCC(=O)O)C(=O)O)C(=O)O)C(=O)O)C(=O)N[C@H](C(N)=O)[C@@H](C)O, also called Chem. 40; Chem 40) | 3 pM | 30 pM | 1.2 nM | 7.1 nM |
| H[Aib]QGTFTSDYSKYLDARRARDFVAWLIK([γGlu-γGlu-AEEA-AEEA-γGlu-C18 diacid])T-NH2 (N-terminus assumed; SMILES CC[C@H](C)[C@H](NC(=O)[C@H](CC(C)C)NC(=O)[C@H](Cc1c[nH]c2ccccc12)NC(=O)[C@H](C)NC(=O)[C@@H](NC(=O)[C@H](Cc1ccccc1)NC(=O)[C@H](CC(=O)O)NC(=O)[C@H](CCCNC(=N)N)NC(=O)[C@H](C)NC(=O)[C@H](CCCNC(=N)N)NC(=O)[C@H](CCCNC(=N)N)NC(=O)[C@H](C)NC(=O)[C@H](CC(=O)O)NC(=O)[C@H](CC(C)C)NC(=O)[C@H](Cc1ccc(O)cc1)NC(=O)[C@H](CCCCN)NC(=O)[C@H](CO)NC(=O)[C@H](Cc1ccc(O)cc1)NC(=O)[C@H](CC(=O)O)NC(=O)[C@H](CO)NC(=O)[C@@H](NC(=O)[C@H](Cc1ccccc1)NC(=O)[C@@H](NC(=O)CNC(=O)[C@H](CCC(N)=O)NC(=O)C(C)(C)NC(=O)[C@@H](N)Cc1c[nH]cn1)[C@@H](C)O)[C@@H](C)O)C(C)C)C(=O)N[C@@H](CCCCNC(=O)CC[C@H](NC(=O)CC[C@H](NC(=O)COCCOCCNC(=O)COCCOCCNC(=O)CC[C@H](NC(=O)CCCCCCCCCCCCCCCCC(=O)O)C(=O)O)C(=O)O)C(=O)O)C(=O)N[C@H](C(N)=O)[C@@H](C)O, also called Chem. 32; Chem 32) | 2 pM | 7 pM | 0.3 nM | 0.9 nM |

The remaining lines, values ahead:

| GLP-1R EC50 (pM) [Assay (I)(a)], CRE luciferase reporter, BHK cells (human GLP-1 receptor [1]) | GlucagonR EC50 (pM), [Assay (I)(b)], CRE luciferase reporter, BHK cells (human glucagon receptor [2]) | IC50 (human GLP-1 receptor [3]) | IC50 (human glucagon receptor [4]) | Binder |
| --- | --- | --- | --- | --- |
| 4 pM | 22 pM | 1.5 nM | 6.5 nM | HXQGTFTSDYSRYLESRRARDFVQWLIKT (Acb at position 2; epsilon-N of Lys28 acylated with the substituent given in the name (17-carboxyheptadecanoyl-2xgGlu-Ado-gGlu-Ado-gGlu-Ado-gGlu-); C-terminal amide, also called Chem. 36; Chem 36) |
| 4 pM | 98 pM | 1.5 nM | 6.6 nM | HXQGTFTSDYSRYLESRRARDFVQWLIKT (Aib at position 2; epsilon-N of Lys28 acylated with the substituent given in the name (17-carboxyheptadecanoyl-2xgGlu-Ado-gGlu-Ado-gGlu-Ado-gGlu-); C-terminal amide, also called Chem. 37; Chem 37) |
